Source: US20240139329A1 (CALIFORNIA INSTITUTE OF TECHNOLOGY, published 2024)

T1: human interleukin 3 (IL3), expressed on microarray cells (human, UniProt P08700 20-152)
T1 construct: also called hIL3
T1 sequence: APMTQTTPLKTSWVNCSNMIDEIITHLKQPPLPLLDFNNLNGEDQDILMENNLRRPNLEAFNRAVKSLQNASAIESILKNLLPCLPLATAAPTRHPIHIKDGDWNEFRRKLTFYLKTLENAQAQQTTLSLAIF

T2: Mouse SCA1 (LY6A), on cells (mouse, UniProt P05533 27-112)
T2 construct: whole, on cells; also called mouse LY6A
T2 sequence: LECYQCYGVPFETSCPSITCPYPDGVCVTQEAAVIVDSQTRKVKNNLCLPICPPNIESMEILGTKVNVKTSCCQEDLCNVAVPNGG

T3: mouse LRP6-E1E2 (N-half, AA 20-628) tagged with Fc (mouse IgG2a) (mouse, UniProt O88572 20-628)
T3 construct: not shown: mouse IgG2a Fc
T3 sequence: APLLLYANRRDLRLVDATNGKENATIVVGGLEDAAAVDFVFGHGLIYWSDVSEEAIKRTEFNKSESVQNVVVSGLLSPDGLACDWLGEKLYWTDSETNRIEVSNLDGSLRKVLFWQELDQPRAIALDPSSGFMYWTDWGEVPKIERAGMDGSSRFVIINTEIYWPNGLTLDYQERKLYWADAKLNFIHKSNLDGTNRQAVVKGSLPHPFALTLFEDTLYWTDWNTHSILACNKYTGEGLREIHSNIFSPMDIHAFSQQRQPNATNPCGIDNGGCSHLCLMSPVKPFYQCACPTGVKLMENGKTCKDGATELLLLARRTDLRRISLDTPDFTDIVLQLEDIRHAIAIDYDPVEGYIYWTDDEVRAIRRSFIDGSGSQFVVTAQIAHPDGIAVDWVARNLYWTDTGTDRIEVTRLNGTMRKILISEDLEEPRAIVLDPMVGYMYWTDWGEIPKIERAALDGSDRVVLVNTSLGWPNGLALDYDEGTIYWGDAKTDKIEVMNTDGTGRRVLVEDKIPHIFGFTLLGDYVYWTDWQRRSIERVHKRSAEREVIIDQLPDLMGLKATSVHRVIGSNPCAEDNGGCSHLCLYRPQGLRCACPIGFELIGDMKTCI

T4: mouse LRP6-E3E4 (C-half, AA 629-1244) tagged with Fc (mouse IgG2a) (mouse, UniProt O88572 629-1244)
T4 construct: not shown: mouse IgG2a Fc
T4 sequence: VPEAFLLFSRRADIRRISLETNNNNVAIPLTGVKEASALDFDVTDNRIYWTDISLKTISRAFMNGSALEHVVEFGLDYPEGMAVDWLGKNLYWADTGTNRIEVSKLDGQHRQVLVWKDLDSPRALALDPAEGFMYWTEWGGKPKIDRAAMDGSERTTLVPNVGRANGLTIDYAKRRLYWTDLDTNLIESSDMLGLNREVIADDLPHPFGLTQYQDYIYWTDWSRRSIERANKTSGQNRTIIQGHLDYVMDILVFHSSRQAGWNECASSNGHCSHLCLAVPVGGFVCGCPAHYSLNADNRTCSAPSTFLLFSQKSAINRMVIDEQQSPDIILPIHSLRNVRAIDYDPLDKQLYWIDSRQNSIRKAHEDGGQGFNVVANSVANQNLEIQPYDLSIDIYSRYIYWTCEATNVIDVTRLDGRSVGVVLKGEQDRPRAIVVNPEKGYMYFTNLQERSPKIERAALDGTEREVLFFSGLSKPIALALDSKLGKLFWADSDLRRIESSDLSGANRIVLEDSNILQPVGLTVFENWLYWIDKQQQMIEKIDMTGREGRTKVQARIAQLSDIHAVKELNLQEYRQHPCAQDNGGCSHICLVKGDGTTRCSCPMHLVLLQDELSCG


Legend:
[1] = target: T1, human interleukin 3 (IL3), expressed on …; test: cell microarray screen hit (title of Table 4)
[2] = target: T2, Mouse SCA1 (LY6A), on cells; test: cell microarray, individual capsids, anti-AAV9 detection
Experimental: To enable higher-throughput screening, the six capsids were tested as a pool. Pooled testing required additional dosage optimizing, first for the individual and then for the collective background binding levels of the included capsids (Table 5).

[3] = target: T3, mouse LRP6-E1E2 (N-half, AA 20-628) …; test: SPR, target-Fc captured on protein A chip, AAV analyte (FIG. 20B)
[4] = target: T4, mouse LRP6-E3E4 (C-half, AA 629-1244) …; test: as above
[5] = target: T2, Mouse SCA1 (LY6A), on cells; test: cell microarray screen hit (membrane)
Experimental: After these controls, the six-capsid pool was tested in a full screen of approximately 6400 proteins, including 6000 human plasma membrane proteins and secreted and cell surface-tethered proteins, as well as approximately 400 heterodimers. […] To assign these hits to specific capsids, follow-up deconvolution screens were performed with each individual capsid from the pool (FIG. 12E). DNA oligos for the 22 identified hits, as well as the positive control CD86, were affixed in duplicate locations to new slides. A negative control condition with no AAV analyte and a positive control condition with CTLA4-Fc (CD86 binder) were also included.

Row | Binder | binding result [1] | binding result [2] | binding result [3] | binding result [4] | binding result [5]
1 | AAV-MaCPNS1 (other) MAADGYLPDWLEDNLSEGIREWWALKPGAPQPKANQQHQDNARGLVLPGYKYLGPGNGLDKGEPVNAADAAALEHDKAYDQQLKAGDNPYLKYNHADAEFQERLKEDTSFGGNLGRAVFQAKKRLLEPLGLVEEAAKTAPGKKRPVEQSPQEPDSSAGIGKSGAQPAKKRLNFGQTGDTESVPDPQPIGEPPAAPSGVGSLTMASGGGAPVADNNEGADGVGSSSGNWHCDSQWLGDRVITTSTRTWALPTYNNHLYKQISNSTSGGSSNDNAYFGYSTPWGYFDFNRFHCHFSPRDWQRLINNNWGFRPKRLNFKLFNIQVKEVTDNNGVKTIANNLTSTVQVFTDSDYQLPYVLGSAHEGCLPPFPADVFMIPQYGYLTLNDGSQAVGRSSFYCLEYFPSQMLRTGNNFQFSYEFENVPFHSSYAHSQSLDRLMNPLIDQYLYYLSRTINGSGQNQQTLKFSVAGPSNMAVQGRNYIPGPSYRQQRVSTTVTQNNNSEFAWPGASSWALNGRNSLMNPGPAMASHKEGEDRFFPLSGSLIFGKQGTGRDNVDADKVMITNEEEIKTTNPVATESYGQVATNHQSAQPHEGSSRAQAQTGWVQNQGILPGMVWQDRDVYLQGPIWAKIPHTDGNFHPSPLMGGFGMKHPPPQILIKNTPVPADPPTAFNKDKLNSFITQYSTGQVSVEIEWELQKENSKRWNPEIQYTSNYYKSNNVEFAVNTEGVYSEPRPIGTRYLTRNL | binds | no binding | – | – | –
2 | AAV-BI30 (other) MAADGYLPDWLEDNLSEGIREWWALKPGAPQPKANQQHQDNARGLVLPGYKYLGPGNGLDKGEPVNAADAAALEHDKAYDQQLKAGDNPYLKYNHADAEFQERLKEDTSFGGNLGRAVFQAKKRLLEPLGLVEEAAKTAPGKKRPVEQSPQEPDSSAGIGKSGAQPAKKRLNFGQTGDTESVPDPQPIGEPPAAPSGVGSLTMASGGGAPVADNNEGADGVGSSSGNWHCDSQWLGDRVITTSTRTWALPTYNNHLYKQISNSTSGGSSNDNAYFGYSTPWGYFDFNRFHCHFSPRDWQRLINNNWGFRPKRLNFKLFNIQVKEVTDNNGVKTIANNLTSTVQVFTDSDYQLPYVLGSAHEGCLPPFPADVFMIPQYGYLTLNDGSQAVGRSSFYCLEYFPSQMLRTGNNFQFSYEFENVPFHSSYAHSQSLDRLMNPLIDQYLYYLSRTINGSGQNQQTLKFSVAGPSNMAVQGRNYIPGPSYRQQRVSTTVTQNNNSEFAWPGASSWALNGRNSLMNPGPAMASHKEGEDRFFPLSGSLIFGKQGTGRDNVDADKVMITNEEEIKTTNPVATESYGQVATNHQSAQNNSTRGGAQAQTGWVQNQGILPGMVWQDRDVYLQGPIWAKIPHTDGNFHPSPLMGGFGMKHPPPQILIKNTPVPADPPTAFNKDKLNSFITQYSTGQVSVEIEWELQKENSKRWNPEIQYTSNYYKSNNVEFAVNTEGVYSEPRPIGTRYLTRNL | – | – | binds | no binding | –
3 | AAV-MaCPNS2 (other, also called AAV-MacCPNS2) MAADGYLPDWLEDNLSEGIREWWALKPGAPQPKANQQHQDNARGLVLPGYKYLGPGNGLDKGEPVNAADAAALEHDKAYDQQLKAGDNPYLKYNHADAEFQERLKEDTSFGGNLGRAVFQAKKRLLEPLGLVEEAAKTAPGKKRPVEQSPQEPDSSAGIGKSGAQPAKKRLNFGQTGDTESVPDPQPIGEPPAAPSGVGSLTMASGGGAPVADNNEGADGVGSSSGNWHCDSQWLGDRVITTSTRTWALPTYNNHLYKQISNSTSGGSSNDNAYFGYSTPWGYFDFNRFHCHFSPRDWQRLINNNWGFRPKRLNFKLFNIQVKEVTDNNGVKTIANNLTSTVQVFTDSDYQLPYVLGSAHEGCLPPFPADVFMIPQYGYLTLNDGSQAVGRSSFYCLEYFPSQMLRTGNNFQFSYEFENVPFHSSYAHSQSLDRLMNPLIDQYLYYLSRTINGSGQNQQTLKFSVAGPSNMAVQGRNYIPGPSYRQQRVSTTVTQNNNSEFAWPGASSWALNGRNSLMNPGPAMASHKEGEDRFFPLSGSLIFGKQGTGRDNVDADKVMITNEEEIKTTNPVATESYGQVATNHQSAQPNASVNSAQAQTGWVQNQGILPGMVWQDRDVYLQGPIWAKIPHTDGNFHPSPLMGGFGMKHPPPQILIKNTPVPADPPTAFNKDKLNSFITQYSTGQVSVEIEWELQKENSKRWNPEIQYTSNYYKSNNVEFAVNTEGVYSEPRPIGTRYLTRNL | binds | no binding | – | – | –
4 | AAV.CAP-B22 (other, also called AAV9.CAP-B22) MAADGYLPDWLEDNLSEGIREWWALKPGAPQPKANQQHQDNARGLVLPGYKYLGPGNGLDKGEPVNAADAAALEHDKAYDQQLKAGDNPYLKYNHADAEFQERLKEDTSFGGNLGRAVFQAKKRLLEPLGLVEEAAKTAPGKKRPVEQSPQEPDSSAGIGKSGAQPAKKRLNFGQTGDTESVPDPQPIGEPPAAPSGVGSLTMASGGGAPVADNNEGADGVGSSSGNWHCDSQWLGDRVITTSTRTWALPTYNNHLYKQISNSTSGGSSNDNAYFGYSTPWGYFDFNRFHCHFSPRDWQRLINNNWGFRPKRLNFKLFNIQVKEVTDNNGVKTIANNLTSTVQVFTDSDYQLPYVLGSAHEGCLPPFPADVFMIPQYGYLTLNDGSQAVGRSSFYCLEYFPSQMLRTGNNFQFSYEFENVPFHSSYAHSQSLDRLMNPLIDQYLYYLSRTIDGQSSKSQTLKFSVAGPSNMAVQGRNYIPGPSYRQQRVSTTVTQNNNSEFAWPGASSWALNGRNSLMNPGPAMASHKEGEDRFFPLSGSLIFGKQGTGRDNVDADKVMITNEEEIKTTNPVATESYGQVATNHQSDGTLAVPFKAQAQTGWVQNQGILPGMVWQDRDVYLQGPIWAKIPHTDGNFHPSPLMGGFGMKHPPPQILIKNTPVPADPPTAFNKDKLNSFITQYSTGQVSVEIEWELQKENSKRWNPEIQYTSNYYKSNNVEFAVNTEGVYSEPRPIGTRYLTRNL | binds | – | – | – | binds
